Data: FireProtDB (doi:10.1016/j.jmb.2004.09.082)

B1: Co-chaperonin GroES, P0A6F9 (parent)
chain: MNIRPLHDRVIVKRKEVETKSAGGIVLTGSAAAKSTRGEVLAVGNGRILENGEVKPLDVKVGDIVIFNDGYGVKSEKIDNEEVLIMSESDILAIVEA

Variants of: B1
Details: Escherichia coli (strain K12); pH 7.8; 25 °C; GdnHCl; Chromatography; Tris-HCl 5 mM; KCl 200 mM; reversible: yes; structure 1AON; whole UniProt chain shown

Variant	ddG of mutation (higher = less stable)	denaturant m value	unfolding free energy
I3C	0.4 kcal/mol	2.4 kcal/mol/M	1.9 kcal/mol
I3W	0.4 kcal/mol	2 kcal/mol/M	1.9 kcal/mol
V95C	0.3 kcal/mol	2.2 kcal/mol/M	2 kcal/mol
